Key:
RcsB wild-type [1] = molecular target: T1, RcsB wild-type (Salmonella Typhimurium, UniProt P58663 1-216); assay: crystal structure
T1 sequence: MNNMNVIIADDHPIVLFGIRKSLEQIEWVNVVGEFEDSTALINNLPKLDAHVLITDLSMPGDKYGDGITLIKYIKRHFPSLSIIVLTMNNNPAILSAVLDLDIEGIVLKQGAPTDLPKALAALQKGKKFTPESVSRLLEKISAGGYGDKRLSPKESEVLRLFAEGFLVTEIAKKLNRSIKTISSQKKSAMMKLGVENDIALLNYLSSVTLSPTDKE

RcsB wild-type [2] = molecular target: T1, RcsB wild-type; assay: EMSA
RcsB wild-type [3] = molecular target: T1, RcsB wild-type; assay: EMSA; remark: listed apart in the source
RcsB wild-type [4] = molecular target: T1, RcsB wild-type; assay: EMSA; remark: listed apart in the source
RcsB-L108A = molecular target: T2, RcsB-L108A (Salmonella Typhimurium, UniProt P58663 1-216, L108A); assay: EMSA
T2 sequence: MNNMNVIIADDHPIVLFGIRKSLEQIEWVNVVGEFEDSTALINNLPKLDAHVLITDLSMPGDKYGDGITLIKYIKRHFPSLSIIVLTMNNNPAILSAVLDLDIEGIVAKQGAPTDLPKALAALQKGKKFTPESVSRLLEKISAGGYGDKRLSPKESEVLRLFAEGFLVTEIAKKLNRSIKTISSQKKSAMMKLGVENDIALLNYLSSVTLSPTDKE

crystal structure = molecular target: the molecule itself; assay: crystal structure

B1: PrprA (dsDNA)
DNA 1: CCTATTGAGACGAATCTGATCGG
DNA 2: CCGATCAGATTCGTCTCAATAGG
binding result (RcsB wild-type [1]): binds

B2: P1flhDC second AGA to AGG (dsDNA)
DNA 1: CGAATTAGGAAAAACCTTAGGCG
DNA 2: CGCCTAAGGTTTTTCCTAATTCG
binding result (RcsB wild-type [2]): binds

B3: flgA (dsDNA)
DNA 1: GTTAATAAGAATATTCCCATCAG
DNA 2: CTGATGGGAATATTCTTATTAAC
binding result (RcsB wild-type [3]): binds

B4: P1flhDC first GGA to AGA (dsDNA)
DNA 1: CGAATTAAGAAAAATCTTAGGCG
DNA 2: CGCCTAAGATTTTTCTTAATTCG
binding result (RcsB wild-type [4]): binds

B5: P1flhDC (dsDNA)
DNA 1: CGAATTAGGAAAAATCTTAGGCG
DNA 2: CGCCTAAGATTTTTCCTAATTCG
binding result (RcsB-L108A): no binding

B6: nlpD (dsDNA)
DNA 1: ACCTTTCGGAATATTCCCATACT
DNA 2: AGTATGGGAATATTCCGAAAGGT
binding result (RcsB wild-type [3]): binds

B7: ytfK (dsDNA)
DNA 1: GATGTTTAGATAATTCTGAATAA
DNA 2: TTATTCAGAATTATCTAAACATC
binding result (RcsB wild-type [3]): binds

B8: osmB (dsDNA)
DNA 1: CTCTCTAAGACTTTTCTGACATC
DNA 2: GATGTCAGAAAAGTCTTAGAGAG
binding result (RcsB wild-type [3]): binds

B9: RcsB from S. Typhimurium, full-length wild-type, bound to phosphomimetic BeF3- (natural protein, UniProt P58663 1-216, looked up)
chain: MNNMNVIIADDHPIVLFGIRKSLEQIEWVNVVGEFEDSTALINNLPKLDAHVLITDLSMPGDKYGDGITLIKYIKRHFPSLSIIVLTMNNNPAILSAVLDLDIEGIVLKQGAPTDLPKALAALQKGKKFTPESVSRLLEKISAGGYGDKRLSPKESEVLRLFAEGFLVTEIAKKLNRSIKTISSQKKSAMMKLGVENDIALLNYLSSVTLSPTDKE
modifications: phosphomimetic BeF3- bound in the active site (phosphorylatable residue D56)
stoichiometry N (crystal structure): 2
